Target: GST-Fbw7 (residues 263 to 707)-Skp1 complex (UniProt Q969H0)
Assay: AlphaScreen or HTRF

Which IC50 does the source give for “Myc T58 degron peptide, monophosphorylated (pT58)” here?
Its IC50 is 1320 nM.

Reference: publication PMC8797792
